The data set can be described thus: soluble on expression in E. coli; label from the status in PepcDB or PDB records.
“MTDHTMKKNPVSIPHTVWYADDIRRGEREAADVLGLTLYELMLRAGEAAFQVCRSAYPDARHWLVLCGHGNNGGDGYVVARLAKAVGIEVTLLAQESDKPLPEEAALAREAWLNAGGEIHASNIVWPESVDLIVDALLGTGLRQAPRESISQLIDHANSHPAPIVAVDIPSGLLAETGATPGAVINADHTITFIALKPGLLTGKARDVTGQLHFDSLGLDSWLAGQETKIQRFSAEQLSHWLKPRRPTSHKGDHGRLVIIGGDHGTAGAIRMTGEAALRAGAGLVRVLTRSENIAPLLTARPELMVHELTMDSLTESLEWADVVVIGPGLGQQEWGKKALQKVENFRKPMLWDADALNLLAINPDKRHNRVITPHPGEAARLLGCSVAEIESDRLHCAKRLVQRYGGVAVLKGAGTVVAAHPDALGIIDAGNAGMASGGMGDVLSGIIGALLGQKLSPYDAACAGCVAHGAAADVLAARFGTRGMLATDLFSTLQRIVNPEVTDKNHDESSNSAP”: the “soluble on expression in E. coli” value was “soluble”.

On to “MSLRSMFMYKSHIPEDCEEEAQITAAKLILLVDDDPVFRRMTKGYLQKYGYQVIEAENGLDGLRKLRDHEPDLILCDLSMPVLNGIEFVEEVSSSYPSLPLVVVSATEEMADVAKALRFGIKDFLPKPITNHSHLASAIEKVLANDDHQRDFASCWYGADRQGSIPEEQELHWHLQYLKDNPNAAKELLEALLPEKDSQLGSWKCSYRLLQSAELMPLVFDYAWLMNGQFVFYVVDAASHRECGAASTLLVRALFHDYLRNLRNFSVELKDLAEIIERGIHCSECIGKVSALFGVADLADGTLSLLPAGLDCQWSNGYVHNRITSGVQLGDNSLRNFITKDLPIRAACQISLSKPSAYSFTLDLYQGEGHHHHHH”, for which the “soluble on expression in E. coli” value is “soluble”. The same measure for “MSLSSFPDVPGWVKPSVDYLINKNVLSGMPDGTFSPNLEIDRGSSAKVMAKILELPIDQSAKPSFDDSKSHWAAPYIAAIEKAGVIKGDGKGNFNPTGKLTRGAMASMLVHAYKLQEKVTGNPPTVFNDLKDHWSEKYVNILVELGISNGYGDDNWKPDQTITRAETVSLVARTDEGHHHHHH”: “not soluble”. The same measure for “MLSQLREIVEKVSRVDDVHLALDILVKETCAALRTECCTIYLANEEMQRLELMATQGLIFEGDSIHINFNEGLVGLVKRSAEPLNLAEASKHPEFKFFPQLGEQVYHSFLATPIIHRKQVLGVLVIQQKTPRLFSEMEESFLVTLSAQLAVIIAHAQSLGHWQ”: “not soluble”. The same measure for “MKTALLLVDIQNDYFPNGKMELRNPVEASEYANQLLQHFRTNSEPILHIQHVAIKDDATFFLPNTEGVHIHESVRPLREETVIVKHYPNSFRETNLLEQLKRLNIEHVVVCGMMTHMCIDATVRAAFDFGFQCTVIHDACATKDLSFKNATIPAVYIHNTILASLNGVYANVISTQEFLAT”: “not soluble”; for “MKLNKQNLTQLAPEVKLPAYTLADTRQGIAHIGVGGFHRAHQAYYTDALMNTGEGLDWSICGVGLRSEDRKARDDLAGQDYLFTLYELGDTDDTEVRVIGSISDMLLAEDSAQALIDKLASPEIRIVSLTITEGGYCIDDSNGEFMAHLPQIQHDLAHPSSPKTVFGFICAALTQRRAAGIPAFTVMSCDNLPHNGAVTRKALLAFAALHNAELHDWIKAHVSFPNAMVDRITPMTSTAHRLQLHDEHGIDDAWPVVCEPFVQWVLEDKFVNGRPAWEKVGVQFTDDVTPYEEMKIGLLNGSHLALTYLGFLKGYRFVHETMNDPLFVAYMRAYMDLDVTPNLAPVPGIDLTDYKQTLVDRFSNQAIADQLERVCSDGSSKFPKFTVPTINRLIADGRETERAALVVAAWALYLKGVDENGVSYTIPDPRAEFCQGLVSDDALISQRLLAVEEIFGTAIPNSPEFVAAFERCYGSLRDNGVTTTLKHLLKKPV”: “soluble”; for “MQKPKLGKIKLLSAKEQVAAVLRKAILSRELVEGQEITLEGIAGMVGVSSMPVREAFQILAADGLIKVRPNKGAVVLGINEQTIREHYEIRALLESEAVAKASRPGSDISRIAQVHYAAEKALAENNSAEYSDLNQAFHMEIWNVAGNEKMKMLLCNMWNGLSMGHKVTEEEYAVISIQEHKSILQALELHDETLARQRMREHIIRSMENMLTRYVGDPSA”: “not soluble”.

Turning to “ARPKGIRIGYLPQVMRLQDGHTVYEEVEQAFNDIRQIEEEIRRLSDEMAGRTDYESDDYIRLIEHYTNMSETLSLMQQGNYHAAIEQTLIGLGFGREDFHRPTADFSGGWRMRIELAKLLLQRPEVLLLDEPTNHLDIESIGWLEQFIATNAGAVILVSHDRAFIDNTTTRTIEIELGHIYDYKTNYSHYVELREERLRQQMRAYENQQKMIRDTEDFIERFRYKATKSVQVQSRIKQLEKVERVEIDERDRSAFHFRFIPAQPSGSYP”, the “soluble on expression in E. coli” value is reported as “not soluble”. The same measure for “MSENPVVSDKKPGPSKDSSFFSDLYDNLNQNPYFNAGAGLAGIGIAMSFLRRTAQISNTYFRRRFMINLQINNEDAAYPWLLDFINNRSATQTRNLSANTVVHQAESGKTELSISFLPGHGTHFFVHDYRWIKVERQREKQVIQRDGIRTPFETVTLTTLGSDVKFFKRMLEQSAKEAIDNAETGLVIYQAVGPQWIRFGVPRKKRDIESVILDGRICEELVEDFQEFISSATWYADRGVPYRRGYLFYGPPGTGKSSFISALASHFGYSVCLLSLSERTLDDDRLNHLLNTAPPNSVVILEDIDAAFVSREDPMSNHPAYQGLSRVTFSGLLNALDGVACAEERLTFMTTNYVERLDPALIRPGRVDRKQYFGNATDGMLSKMFSRFYRQPSDSVLADEFVKRVSEHKTELSPAMIQGHFLMYKQDPRAALDNIKNMFKTV”: “not soluble”; for “MVKSLQLAHQLKDKRILLIGGGEVGLTRLYKLMPTGCKLTLVSPDLHKSIIPKFGKFIQNKDQPDYREDAKRFINPNWDPTKNEIYEYIRSDFKDEYLDLENENDAWYIIMTCIPDHPESARIYHLCKERFGKQQLVNVADKPDLCDFYFGANLEIGDRLQILISTNGLSPRFGALVRDEIRNLFTQMGDLALEDAVVKLGELRRGIRLLAPDDKDVKYRMDWARRCTDLFGIQHCHNIDVKRLLDLFKVMFQEQNCSLQFPPRERLLSEYCSS”: “soluble”. The same measure for “MSIWQRVSFTHRFSQLPSAFYTLVEPQPLDNTRWVAWNGEFAQQFGLPAAQNDELLAVFSGQSEFEPFRPLAMKYAGHQFGVYNPDLGDGRGLLLAEIEHQNGTWFDIHLKGAGLTPYSRMGDGRAVLRSTIREYLCSEAMAGLGIPTTRALGMVVSDTPVYREKTEFGAMLIRMAETHVRFGHFEHLFYTNQLAEQKLLADKVIEWHFADCASAEKPYAAMFGEIVQKTADMIAYWQAYGFAHGVMNTDNMSILGQTFDYGPFGFLDDYEPGYICNHSDYQGRYAFEQQPRIALWNLSALAHALSPLVEREDLEQALSQFEGRLSQQFSRLMRSKLGLKTKIAEDGRLFESMFELLNQNHTDYTRFFRALSNLDKQPAQEVIDLFIDREAAQAWLDLYLARCELEVDEIGEPISAEQRSEQMRQTNPKYILRNYLAQLAIDKAEEGDFSEVHRLAEILRHPYDSQPEFEAYAKLPPEWGKKMEISCSSLEHHHHHH”: “not soluble”; for “MTNPQFAGHPFGTTVTAETLRNTFAPLTQWEDKYRQLIMLGKQLPALPDELKAQAKEIAGCENRVWLGYTVAENGKMHFFGDSEGRIVRGLLAVLLTAVEGKTAAELQAQSPLALFDELGLRAQLSASRSQGLNALSEAIIAATKQV”: “not soluble”. The same measure for “MSSQQQESEASGYNTSASSEFGSLEDSHQFVSPVTRHASKRRAVENVDHLDELMKSSMVLSPEKRLRLNTSNDSNLVRNTARSPDSSMNGRPQTRRSTSSDIEISPRVRAMRSTSGSSMDLVRTVSSFCTDSISPKFFTNHGSTTRKRTENGSIYSRHRLGATFSPLVAGAKRKMATPSQSLKRQEKQSPLESRHGGLRSRGTPQRKLLLCDRLKVLN”: “not soluble”.

As for “NNESSLIEQAPIPQDGLTVAPHRAQREAVHIEKIMLKGVQRKRADKYWEYTFKVNWSDLSVTTVTKTHQELQEFLLKLPKELSSETFDKTILRALNQGSLKREERRHPDLEPILRQLFSSSSQAFLQSQKVHSFFQSISSDSLHSINNLQSSLKTSKILEHLKEDSSEASSQEEDVLQHAIIHKKHTGKSPIVNNIGTSCSPLDGLTMQYSEQNGIVDWRKQSCTTIQHPEHCVTSADQHSAEKRSLSSINKKKGKPQTEKEKIKKTDNRLNSRINGIRLSTPQHAHGGTVKDVNLDIGSGHDTCGETSSESYSSPSSPRHDGRESFESEEEKDRDTDSNSEDSGNPSTTRFTGYGSVNQTVTVKPPVQIASLGNENGNLLEDPLNSPKYQHISFMPTLHCVMHNGAQKSEVVVPAPKPADGKTIGMLVPSPVAISAIRESANSTPVGILGPTACTGESEKHLELLASPLPIPSTFLPHSSTPALHLTVQRLKLPPPQGSSESCTVNIPQQPPGSLSIASPNTAFIPIHNPGSFPGSPVATTDPITKSASQVVGLNQMVPQIEGNTGTVPQPTNVKVVLPAAGLSAAQPPASYPLPGSPLAAGVLPSQNSSVLSTAATSPQPASAGISQAQATVPPAVPTHTPGPAPSPSPALTHSTAQSDSTSYISAVGNTNANGTVVPPQQMGSGPCGSCGRRCSCGTNGNLQLNSYYYPNPMPGPMYRVPSFFTLPSICNGSYLNQAHQSNGNQLPFFLPQTPYANGLVHDPVMGSQANYGMQQMAGFGRFYPVYPAPNVVANTSGSGPKKNGNVSCYNCGVSGHYAQDCKQSSMEANQQGTYRLRYAPPLPPSNDTLDSAD”, the “soluble on expression in E. coli” value is “soluble”.

Regarding “MGSDKIHHHHHHMRNELPPENAYRILESGPIVLVSTRGADGRANLMTMGFHMMMQHEPPLVGAIIGPWDYSHQALSETGECVLAVPTVDLAETVVDIGNCSGDALDKFGHFGLTPVPAQTVDAPLVRQCWANLECRVVDDGWARRYNLWVLEVQRIWIDTARKETRLIHHQGDGRFSVDGDTLDLGERMTKWRHLMG”, the “soluble on expression in E. coli” value was “not soluble”. As to “MNLGDLTNFVEKPLAAVSNIVNTPNSAGRYRPFYLRNLLDAVQGRNLNDAVKGKVVLITGGSSGIGAAAAKKIAEAGGTVVLVARTLENLENVANDIRAIRGNGGTAHVYPCDLSDMDAIAVMADQVLGDLGGVDILINNAGRSIRRSLELSYDRIHDYQRTMQLNYLGAVQLILKFIPGMRERHFGHIVNVSSVGVQTRAPRFGAYIASKAALDSLCDALQAETVHDNVRFTTVHMALVRTPMISPTTIYDKFPTLTPDQAAGVITDAIVHRPRRASSPFGQFAAVADAVNPAVMDRVRNRAFNMFGDSSAAKGSESQTDTSELDKRSETFVRATRGIHW”, the “soluble on expression in E. coli” value is listed as “soluble”. The same measure for “MGSDKIHHHHHHMKSILLFMIFVVCQLEGKKFSQDNFKVDYNYYLRKQDLHIIKTQNDLSNSWYLPPQKAPKEHSWVDFAKKYLNMMDYLGTYFLPFYHSFTPIFQWYHPNINPYQRNEFKFQISFRVPVFRHILWTKGTLYLAYTQTDWFQIYNDPQSAPMRMMNFMPELIYVYPINFKPFGGKIGNFSEIWIGWQHISNGVGGAQCYQPFNKEGNPENQFPGQPVIVKDYNGQKDVRWGGCRSVSAGQRPVFRLVWEKGGLKIMVAYWPYVPYDQSNPNLIDYMGYGNAKIDYRRGRHHFELQLYDIFTQYWRYDRWHGAFRLGYTYRINPFVGIYAQWFNGYGDGLYEYDVFSNRIGVGIRLNP”: “not soluble”; for “MGHHHHHHSHDRVNGVAKEYVIYGYGEPLLYPDFFKRIEGFDGKVVISTNGMLDSDILDLADKVGVSIDVNDKFRKGLEVEKALEVLRKLGERGIAEVVVTKDNLELLPAFFERIAEHGSGMLATNVVASNPAIYEQGVYFECSRITVEKVLGLDESILVEAIKDCSRGGGEALRRYKHLLKEVYSKGYSINLLAIFGRKGRVETAFKA”: “soluble”.

Source of the values: the DeepSol protein solubility set.
